Measured values published in patent US20050282239A1, “Cell-permeable enzyme activation reporter that can be loaded in a high throughput and gentle manner” (priority 2003, published 2005).
Ends that are not written are not given here.

How the values were obtained:
[1] = In vitro UVA photocleavage of photolabile conjugate, CE quantification; type: physicochemical
Excerpt: Therefore, we designed a second detachable linker between the TAT(49-57) and the substrate peptide. An Fmoc-aminoethyl photolabile moiety was inserted between the fluorescently-labeled substrate and the TAT(49-57) sequences using standard Fmoc peptide chemistry. The relative order of the different portions of the conjugate was: fluorescein-substrate-PLL-TAT(49-57). Two different substrate peptides were conjugated to TAT(49-57) to form F-PKB-PLL-TAT (SEQ ID NO:18) and F-CamKII-PLL-TAT (SEQ ID NO:19). To determine the time and irradiation intensity needed to photocleave the conjugated peptides, standard solutions (1 nM or 10 μM) of F-PKB-PLL-TAT (SEQ ID NO:18) were illuminated with long-wavelength UV light (UVA) for varying times. The sample was then loaded into a capillary and electrophoresis performed. The concentration of the released substrate peptide was quantified from its fluorescence. At the irradiation intensity used, maximal cleavage of the substrate peptide from the TAT(49-57) sequence was achieved within 20 minutes. […] After a 10 s exposure, 2% of the conjugate was photoreleased. […] The fluorescein was not substantially photobleached by the UVA-induced cleavage since the amount of fluorescent peptide detected after a 4 h irradiation was almost identical to that after 20 min of UVA exposure.
The photolabile TAT(49-57) conjugate (e.g., SEQ ID NOs:18 or 19) (1 nM or 10 μM in ECB) was illuminated with ultraviolet A (UVA; 20 mW/cm^2) using a 365 nm light source (UVP Blak-Ray B100AP; Upland, Calif.). […] for the photolabile group was 365 nm. After photo-release, the fluorescent substrate was resolved by electrophoresis and then quantified by CE. Detection wavelengths were: excitation, 488 nm; emission, 505-565 nm.
A known concentration of the photo-cleavable reporter was placed in an uncapped, shallow vial. The sample was then illuminated with the UV light source for varying times as described above. A small amount of the sample was then removed and the amount of released peptide was quantified using CE. […]

[2] = target: T1, PKB (Homo sapiens, UniProt P31749); assay: CACE: intracellular phosphorylation of PKB substrate in HT1080 cells; type: cell-based
T1 construct: endogenous in cells; host or cells: HT1080 cells; HT1080/PTEN cells (engineered to over-express wild type PTEN, PKB itself not transfected)
Excerpt: Since the properties of F-PKB (SEQ ID NO:17) microinjected into HT1080 cells have been well characterized, experiments were undertaken to compare the fate of F-PKB-C loaded as F-PKB-C-SS-TAT (SEQ ID NO:16) into HT1080 cells to that of the microinjected F-PKB (SEQ ID NO:17). When microinjected, the percentage of phosphorylated F-PKB depended on the relative, steady-state levels of both the kinases and phosphatases. This observation is shown in electrophoretic traces from cells loaded with F-PKB-C-SS-TAT (1 μM) (FIG. 6). A single asterisk denotes the migration time of F-PKB, and a double asterisk denotes the migration time of phosphorylated F-PKB from cells on the day of the experiment.
CACE has been previously described (Sims, Meredith et al. 1998; Meredith, Sims et al. 2000; Li, Wu et al. 2001). Briefly, cells were placed on an inverted fluorescence microscope stage (Diaphot 300, Nikon, Japan) and maintained at 37° C. with an objective heater (Bioptechs; Butler, Pa.) prior to lysis unless stated otherwise. The cells were continually washed with ECB maintained at 37° C. (unless otherwise indicated) with a flow rate of 1 ml/min and a total chamber volume of 0.5 ml. The inlet of a capillary (30 μm I.D., 360 μm O.D., 75 cm long) was positioned 10 μm above the cell. The inverted microscope was coupled to a pulsed Nd:YAG laser and a CE system (Sims, 1998). The CACE-based assay was performed as previously described (U, 2001; Meredith, 2000). Cells were always maintained in ECB when analyzed by the CACE.
CE was performed as described (Sims, Meredith et al. 1998), with the following modifications. The inner walls of the capillaries (30 μm I.D., 360 μm O.D.) were coated with poly(acrylate) (Wang, Hu et al. 2003). The outlet of the capillary was held at a negative potential of 18-21 kV, and the inlet reservoir was held at ground potential. Under these conditions, the current through the capillary was typically ˜36 μA. Solutions of standards were loaded into the capillary by gravitational fluid flow. The loaded volume was calculated from Poiseulle's equation and from contributions by spontaneous fluid displacement and diffusion (Weinberger, 2000; Fishman, 1994; Crank, 1989). To estimate the number of moles of peptide in an unknown solution or within a cell, the peak area from the electrophoretic trace of the solution or the cell was compared to that of a standard of known concentration separated by electrophoresis on the same day. A 1 pL cell volume and 100% peptide recovery was assumed in calculating intracellular peptide concentration (Meredith, Sims et al. 2000; Sims, Meredith et al. 1998). Analytes were detected by laser-induced fluorescence (Sims, Meredith et al. 1998).
Cells were incubated at room temperature for 5 minutes in 1% bovine serum albumin (BSA) in ECB, washed in ECB, and then incubated for 5 minutes at room temperature with a substrate conjugated to TAT(49-57). The cells were then washed with 1% BSA in ECB. Cells loaded with the disulfide conjugate were placed in supplement DMEM (10% FCS, 4 mM L-glutamine, 100 U/mL penicillin and 100 μg/mL streptomycin) and incubated at 37° C. in 5% CO2 for 20 minutes. Cells loaded with the photolabile conjugate were placed in supplemented DMEM and incubated at 37° C. in 5% CO2 for 10 minutes (unless stated otherwise) and were then illuminated with a UV light source for 10 seconds (a radiant energy/unit area of 2 kJ/m^2). The supplemented DMEM was exchanged and the cells were incubated another 10 minutes at 37° C. in 5% CO2. Just prior to analysis the cells were washed into ECB.

[3] = test system: HT1080 cells; assay: CACE single-cell analysis: loading and release of cargo; type: cell-based, human
[4] = target: T1, PKB; assay: CACE: intracellular phosphorylation of PKB substrate in HT1080/PTEN cells; type: cell-based; conditions: 1 μM extracellular
Description: Previous investigators developed cleavable PTD-cargo conjugates by engineering a disulfide linkage between the two domains (Stein, Weiss et al. 1999; Hallbrink, Floren et al. 2001). […] TAT(49-57)(SEQ ID NO:2) was conjugated via a disulfide bond to cysteines added to substrate peptides for CamKII (F-CamKII-C; SEQ ID NO:13) or PKB (F-PKB-C; SEQ ID NO:14), denoted F-CamKII-C-SS-TAT (SEQ ID NO:15) and F-PKB-C-SS-TAT (SEQ ID NO:16), respectively. The TAT(49-57)-Conjugated substrates were incubated with cells (HT1080 or HT1080/PTEN cells) and the contents of the cells were analyzed by the CACE. […]
(§1) CACE has been previously described (Sims, Meredith et al. 1998; Meredith, Sims et al. 2000; Li, Wu et al. 2001). Briefly, cells were placed on an inverted fluorescence microscope stage (Diaphot 300, Nikon, Japan) and maintained at 37° C. with an objective heater (Bioptechs; Butler, Pa.) prior to lysis unless stated otherwise. […] Cells were always maintained in ECB when analyzed by the CACE.
(§2) CE was performed as described (Sims, Meredith et al. 1998), with the following modifications. […] The loaded volume was calculated from Poiseulle's equation and from contributions by spontaneous fluid displacement and diffusion (Weinberger, 2000; Fishman, 1994; Crank, 1989). […] Analytes were detected by laser-induced fluorescence (Sims, Meredith et al. 1998). […]

[5] = test system: RBL cells; assay: CACE single-cell analysis: loading and release of cargo; type: cell-based, rat; conditions: 750 nM extracellular
[6] = target: T2, PKB (Rattus norvegicus, UniProt P47196); assay: CACE: intracellular phosphorylation of PKB substrate in RBL cells; type: cell-based; conditions: 750 nM extracellular
T2 construct: endogenous in cells; host or cells: RBL-2H3 rat basophilic leukemia cells, with or without PIP3-histone
Description: To determine whether the F-PKB-C delivered to cells by addition of F-PKB-C-SS-TAT (SEQ ID NO:16) at a 750 nM extracellular concentration could also be phosphorylated after pharmacologic activation of PKB (rather than constitutively active PKB), PIP3-histone was added to RBL cells. […] The CACE was used to analyze the amount of phosphorylated F-PKB-C in the presence (15 μM) and absence of PIP3-histone added for 10 min to RBL cells loaded with F-PKB-C-SS-TAT (FIG. 6C,D).
as §1, with “otherwise. The cells were continually washed with ECB maintained at 37° C. (unless otherwise indicated) with a flow rate of 1 ml/min and a total chamber volume of 0.5 ml.” for “otherwise.”
as §2

[7] = test system: F-CamKII-TAT (fluorescein-labeled CamKII substrate peptide conjugated to TAT(49-57) through a peptide bond)

T1 sequence (P31749 whole entry): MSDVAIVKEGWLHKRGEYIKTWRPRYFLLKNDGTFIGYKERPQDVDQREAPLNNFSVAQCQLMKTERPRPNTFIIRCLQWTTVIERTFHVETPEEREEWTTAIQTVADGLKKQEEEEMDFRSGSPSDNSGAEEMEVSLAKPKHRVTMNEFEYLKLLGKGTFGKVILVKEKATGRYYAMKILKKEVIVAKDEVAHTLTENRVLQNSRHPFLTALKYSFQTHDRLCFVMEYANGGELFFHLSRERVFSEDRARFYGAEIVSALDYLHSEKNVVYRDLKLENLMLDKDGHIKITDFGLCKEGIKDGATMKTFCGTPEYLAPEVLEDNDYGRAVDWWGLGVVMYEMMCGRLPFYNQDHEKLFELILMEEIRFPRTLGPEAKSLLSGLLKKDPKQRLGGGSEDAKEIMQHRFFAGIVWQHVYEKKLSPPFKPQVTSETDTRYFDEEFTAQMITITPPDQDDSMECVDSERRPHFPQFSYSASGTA
T2 sequence (P47196 whole entry): as the sequence (P31749 whole entry) above, with S2N, D46E, A50S, K112R, E117T, S137A, K389T, G410N, H415D counted along it

Gly Arg Pro Arg Ala Ala Thr Phe Ala Glu Gly Arg Lys Lys Arg Arg Gln Arg Arg Arg (GRPRAATFAEGRKKRRQRRR-NH2; not fully specified (residue 11, N-terminus); printed as Gly Arg Pro Arg Ala Ala Thr Phe Ala Glu Gly Arg Lys Lys Arg Arg Gln Arg Arg Arg; also: fluorescein, position not given here, photolabile linker, position not given here) [F-PKB-PLL-TAT, fluorescein-PKB substrate-photolabile linker-TAT(49-57)]
conjugate photoreleased ([1]; 10 s UVA exposure): 2% | time to maximal cleavage of substrate peptide from TAT(49-57) ([1]; UVA, 1 nM or 10 μM solution): ≤ 20 min | free substrate peptide ([1]; without UVA illumination): no free substrate peptide could be detected | F-PKB present in the phosphorylated form ([2]; 1 μM extracellular, UVA 10 s, n=15): 67±7% | percentage of phosphorylated F-PKB versus incubation time ([2]; 1 μM, 37° C.): did not vary with the incubation time | time scale on which F-PKB is accessible to kinase ([2]; 1 μM, 37° C.): < 30 min | phosphorylation of F-PKB ([2]; 1 μM, 4° C.): Essentially no phosphorylation | percentage of phosphorylated F-PKB ([2]; 1 μM, 23° C. and 37° C.): similar | cytoplasmic concentration of free F-PKB ([3]; 1 μM 5 min, 30 min incubation, UVA 10 s): ~200 nM | average quantity of F-PKB detected per cell ([3]; 1 μM 5 min, 30 min incubation, UVA 10 s, n=15): 2e-19 ± 9e-20 mol | internalization process into the cytosol ([3]; 1 μM, 37° C.): complete within one hour | total amount of F-PKB detected versus incubation time ([3]; 1 μM, 37° C., 5 min adsorption, wash, varying incubation, UVA 10 s): increased over the initial hour of incubation and then stabilized | amount of F-PKB measured per cell ([3]; 1 μM, 4° C.): reduced | amount of F-PKB measured per cell ([3]; 1 μM, 23° C. and 37° C.): similar | phosphorylation of released F-PKB ([4]; UVA 10 s): not seen

Gly Arg Pro Arg Ala Ala Thr Phe Ala Glu Gly Cys Arg Lys Lys Arg Arg Gln Arg Arg Arg (Fluorescein-GRPRAATFAEGCRKKRRQRRR-NH2; not fully specified; printed as Gly Arg Pro Arg Ala Ala Thr Phe Ala Glu Gly Cys Arg Lys Lys Arg Arg Gln Arg Arg Arg; also: disulfide linkage between the PKB-Cys part and the TAT part (partner not shown)) [F-PKB-C-SS-TAT, F-PKB-C conjugated to TAT(49-57) via a disulfide bond]
peptide present as phosphorylated F-PKB-C ([2]; cells with only two peaks): 75±8% | average amount of detected F-PKB-C ([3]; 215 nM extracellular): 2.5e-19 ± 3e-20 mol | cytosolic concentration of free F-PKB-C ([3]; 215 nM extracellular): ~250 nM | detectable F-PKB-C per cell ([3]; 1 μM extracellular): 7e-19 ± 3e-20 mol | cytosolic concentration of free F-PKB-C ([3]; 1 μM extracellular, 1 pL cell volume assumed): ~700 nM | peak of phosphorylated F-PKB-C [4]: no peak was present | detectable F-PKB-C per cell [5]: 1.4e-20 ± 1e-21 mol | intracellular concentration [5]: ~14 nM | F-PKB-C phosphorylated ([6]; PIP3-histone 15 μM 10 min, n=4): 39%±14% | F-PKB-C phosphorylation ([6]; cells not exposed to PIP3-histone): no phosphorylation

Recombinant calcium-calmodulin activated kinase II (CamKII)
phosphate incorporated into the peptide by CamKII in vitro (32P-ATP kinase assay), compared to the substrate peptide lacking TAT(49-57) [7]: 90% less phosphate was incorporated by the CamKII enzyme into F-CamKII-TAT compared to the peptide lacking the TAT(49-57) sequence
